Patent publication US20240116985A1 (published 2024)
Starred links: 1 amine or outer side, 2 acyl side, 3 side chain; linkers in the order of their positions; H or OH if unused. Positions of bridges follow the written chain, without caps; N, C: chain ends. Non-standard residues stand in square brackets, D forms with d. Primed or numbered codes have the meaning given here. B5(5) = 2,2-bis(4-pentenyl)glycine, 2-amino-2-(pent-4-en-1-yl)hept-6-enoic acid (stitching residue), C=CCCCC(CCCC=C)(N[*:1])C(=O)[*:2]; B5(21) = 2-amino-2-(pent-4-en-1-yl)hept-6-enoic acid, bis(4-pentenyl)glycine (stitching residue), C=CCCCC(CCCC=C)(N[*:1])C(=O)[*:2]; (NHCyBu)AsnR = N4-cyclobutyl-L-asparagine, O=C(C[C@H](N[*:1])C(=O)[*:2])NC1CCC1; (NHCyPr)AsnR = N4-cyclopropyl-L-asparagine, O=C(C[C@H](N[*:1])C(=O)[*:2])NC1CC1; (NHiPr)AsnR = N4-isopropyl-L-asparagine, CC(C)NC(=O)C[C@H](N[*:1])C(=O)[*:2]; (NHnPr)AsnR = N4-propyl-L-asparagine, CCCNC(=O)C[C@H](N[*:1])C(=O)[*:2]; (NHEt)AsnR = N4-ethyl-L-asparagine, CCNC(=O)C[C@H](N[*:1])C(=O)[*:2]; (NHMe)AsnR = N4-methyl-L-asparagine, CNC(=O)C[C@H](N[*:1])C(=O)[*:2]; Bta = N[C@@H](Cc1csc2ccccc12)C(=O)O; αAllylPro = C=CC[C@@]1(C(=O)O)CCCN1; S8 = C=CCCCCCC[C@](C)(N)C(=O)O

T1: full-length beta-Catenin (Uniprot ID P35222) (Homo sapiens (Human), UniProt P35222 1-781)
T1 construct: also called bCat; B-Catenin
T1 sequence: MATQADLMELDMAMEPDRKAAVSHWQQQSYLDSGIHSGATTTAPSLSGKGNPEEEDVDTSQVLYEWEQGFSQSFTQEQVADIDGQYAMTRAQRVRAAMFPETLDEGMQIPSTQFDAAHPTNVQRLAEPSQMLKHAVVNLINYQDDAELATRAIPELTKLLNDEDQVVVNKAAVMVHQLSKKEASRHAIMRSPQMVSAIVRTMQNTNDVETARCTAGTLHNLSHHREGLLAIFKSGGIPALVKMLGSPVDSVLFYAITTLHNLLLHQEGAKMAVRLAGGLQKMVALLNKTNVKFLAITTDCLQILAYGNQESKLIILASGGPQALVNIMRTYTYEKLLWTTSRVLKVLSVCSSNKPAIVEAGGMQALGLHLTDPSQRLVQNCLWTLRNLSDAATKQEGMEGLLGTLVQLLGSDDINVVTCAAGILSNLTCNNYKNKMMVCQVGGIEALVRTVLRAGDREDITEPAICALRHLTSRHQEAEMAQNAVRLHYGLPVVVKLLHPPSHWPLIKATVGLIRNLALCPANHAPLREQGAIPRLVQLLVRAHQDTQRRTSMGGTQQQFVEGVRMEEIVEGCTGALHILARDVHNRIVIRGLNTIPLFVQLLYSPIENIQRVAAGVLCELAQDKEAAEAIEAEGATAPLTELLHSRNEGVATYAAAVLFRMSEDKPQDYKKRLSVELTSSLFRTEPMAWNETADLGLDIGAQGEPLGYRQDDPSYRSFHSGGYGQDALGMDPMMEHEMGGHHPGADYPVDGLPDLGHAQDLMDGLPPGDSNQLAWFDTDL


Target: T1, full-length beta-Catenin (Uniprot ID …)
Experiment: fluorescence polarization competition; full-length beta-catenin with 5FAM-labeled TCF4 residues 10-53 probe as competitor
Description: The plate was incubated protected from light for 60 minutes at 20° C. prior to read. Reads were performed on a CLARIOstar plate reader (BMG Labtech) in duplicate, and data were fitted to a 1:1 binding model with hill slope using an in-house script. All provided concentrations are final concentrations.

| Binder | IC50 |
| --- | --- |
| Ac-[αAllylPro]DA[B5(21)][(NHnPr)AsnR]DAAFV[S8]F[Bta]Q-NH2 (staple 1-4, 4-11) [I-537] | 5000 nM |
| XDTXDEAAFQXFXQ (not fully specified; N-terminal Ac; PL3 at 1; TOMe at 3; B5 at 4; S8 at 11; BztA at 13; C-terminal NH2; staples PL3(1)-B5(4) and B5(4)-S8(11) by olefin metathesis) [I-542] | 109 nM |
| Ac-[αAllylPro]DA[B5(21)][(NHEt)AsnR]DAAFV[S8]F[Bta]Q-NH2 (staple 1-4, 4-11) [I-536] | 4470 nM |
| Ac-[αAllylPro]DA[B5(21)][(NHiPr)AsnR]DAAFV[S8]F[Bta]Q-NH2 (staple 1-4, 4-11) [I-535] | 5000 nM |
| Ac-[αAllylPro]DA[B5(21)][(NHCyBu)AsnR]DAAFV[S8]F[Bta]Q-NH2 (staple 1-4, 4-11) [I-539] | 5000 nM |
| Ac-[αAllylPro]DA[B5(21)][(NHMe)AsnR]DAAFV[S8]F[Bta]Q-NH2 (staple 1-4, 4-11) [I-540] | 5000 nM |
| XDIXDDAAFNXFXQ (not fully specified; N-terminal Ac; PL3 at 1; B5 at 4; S8 at 11; 2OMeF at 12; BztA at 13; C-terminal NH2; staples PL3(1)-B5(4) and B5(4)-S8(11) by olefin metathesis, It has the same description as I-550 and is the earlier eluting HPLC peak (staple isomer composition)) [I-549] | 71 nM |
| XDLXDDAAFQXFXQ (not fully specified; N-terminal Ac; PL3 at 1; B5 at 4; S8 at 11; BztA at 13; C-terminal NH2; staples PL3(1)-B5(4) and B5(4)-S8(11) by olefin metathesis) [I-558] | 56 nM |
| XDIXDDAAFNXFXH (not fully specified; N-terminal Ac; PL3 at 1; B5 at 4; S8 at 11; 2OMeF at 12; BztA at 13; C-terminal NH2; staples PL3(1)-B5(4) and B5(4)-S8(11) by olefin metathesis, It has the same description as I-554 and is the earlier eluting HPLC peak (staple isomer composition)) [I-553] | 61 nM |
| Ac-[αAllylPro]DL[B5(5)]DDAAFN[S8]F[Bta]Q-NH2 (staple 1-4, 4-11) [I-562] | 51 nM |
| Ac-[αAllylPro]DL[B5(5)]DDAAFQ[S8]F[Bta]H-NH2 (staple 1-4, 4-11) [I-560] | 81 nM |
| XDLXDDAAFQXFXH (not fully specified; N-terminal Ac; PL3 at 1; B5 at 4; S8 at 11; BztA at 13; C-terminal NH2; staples PL3(1)-B5(4) and B5(4)-S8(11) by olefin metathesis, It has the same description as I-560 and is the later eluting HPLC peak (staple isomer composition)) [I-561] | 34 nM |
| XDLXDDAAFQXFXQ (not fully specified; N-terminal Ac; PL3 at 1; B5 at 4; S8 at 11; BztA at 13; C-terminal NH2; staples PL3(1)-B5(4) and B5(4)-S8(11) by olefin metathesis, It has the same description as I-558 and is the later eluting HPLC peak (staple isomer composition)) [I-559] | 43 nM |
| XDIXDDAAFNXFXH (not fully specified; N-terminal Ac; PL3 at 1; B5 at 4; S8 at 11; 2OMeF at 12; BztA at 13; C-terminal NH2; staples PL3(1)-B5(4) and B5(4)-S8(11) by olefin metathesis) [I-554] | 27.5 nM |
| Ac-[αAllylPro]DA[B5(21)][(NHCyPr)AsnR]DAAFV[S8]F[Bta]Q-NH2 (staple 1-4, 4-11) [I-538] | 5000 nM |
